In doi:10.64898/2025.12.16.693247 (2025) one finds Kd data, which are given here for 2 molecules.

The target in assay [1] is T1, RIPR-Tail (D717 - N1086) (P. falciparum, UniProt O97302 717-1086, N964Q | N1021Q). The assay can be described thus: SPR; RIPR-Tail immobilised, steady state.
Assay [2] has as its target T1, RIPR-Tail (D717 - N1086). Put plainly: SPR; PTRAMP-CSS immobilised, steady state.
A further assay addresses RIPR EGF 8+. Put plainly: SPR. Background: In SPR one partner is held on a chip, and binding of the other changes the refractive index at the surface.
Another assay has as its target RIPR EGF 6+. Put plainly: SPR.
A further assay addresses RIPR EGF 7+. Put plainly: SPR.
Assay [3] deals with T2, full-length RIPR (RH5-interacting protein) (P. falciparum, UniProt O97302 20-1086). Put plainly: BLI; 2:1 heterogeneous ligand fit, KD2 (second site).
The target of assay [4] is T2, full-length RIPR (RH5-interacting …). The assay can be described thus: BLI; 2:1 heterogeneous ligand fit, KD1. (In general: In BLI a coated tip is dipped into the sample, and binding shifts an interference pattern.)
Assay [5] addresses RIPR EGF 9+ (L898 - N1086) (P. falciparum, UniProt O97302 898-1086, N964Q | N1021Q). The assay can be described thus: SPR.
For assay [6], the target named is mono-biotinylated RIPR-Tail (P. falciparum, UniProt O97302 717-1086, N964Q | N1021Q, biotin on the BAP tag (mono-biotinylated by co-transfected BirA)). The assay can be described thus: SPR.

The term Kd denotes the constant that tells how readily two partners part at equilibrium. High values mean weaker binding, low ones tighter binding.

B1: PTRAMP-CSS heterodimer (complex)
chain 1: CNLKVRNNWEHFLQVYQNNGNFKMEILEPECTIQKNLPSEEEKEEFIDFDRKELLLHDFVVIKNSQFTDEKTLELYLSKEENNKSYLMLTFYLGDLKLMIGHNSPYEISLILNVATVNKNMSNCKNNSYNIVLLKTTDVFNTSDLEILEGPIQFSLGKSSGAFRINVTNFFLNNTWKAFTKDKISFLIKPEENCYTILENKINKPQLLIEKKTTFYSEWGEWSNCSMDCDHPDNVQIRERECIHPSGDCFKGDLKESRPCIIPLPPCNELFSHKDNST
chain 2: QDEKSVKNICVCDFTDKLNFLPLEKTKILCELKPQYGEDIKIIANKEYEINCMNNSKVFCPLKDTFINNTNIKLYSPKLHFEIKDITHKGKNAALYYLKIDEEASDIFFSCSIKPKQVSGLLEGEVRVNLKKHINEEYSIFNEEEDVHVCDFSKGNLDITPSAGFYLKNSRNVSCIYRVIPNKLFLIKLPKLDIVTEKLLPSIVNCLSEFSFINFTLKHVQEGDNYISFNVIFGEFKKHFNLTCSLDLSDFQQEPCNLGKTANITFIFSK
In the case of B1, the dissociation constant Kd stood at 5.69 µM in the assay with RIPR-Tail (D717 - N1086) [1]; 6.23 µM with RIPR-Tail (D717 - N1086) [2]; 3.55 µM with RIPR EGF 8+; 5.15 µM in the assay with RIPR EGF 6+; 2.35 µM with RIPR EGF 7+; 0.176 µM in [3]. The Kd in assay [4] is 0.00113 µM; in assay [5] it was 6.44 µM.

B2: CSS (cysteine-rich small secreted protein), residues Q21-K290 (natural protein)
chain: QDEKSVKNICVCDFTDKLNFLPLEKTKILCELKPQYGEDIKIIANKEYEINCMNNSKVFCPLKDTFINNTNIKLYSPKLHFEIKDITHKGKNAALYYLKIDEEASDIFFSCSIKPKQVSGLLEGEVRVNLKKHINEEYSIFNEEEDVHVCDFSKGNLDITPSAGFYLKNSRNVSCIYRVIPNKLFLIKLPKLDIVTEKLLPSIVNCLSEFSFINFTLKHVQEGDNYISFNVIFGEFKKHFNLTCSLDLSDFQQEPCNLGKTANITFIFSK
B2: binding in assay [6] was characterised by a dissociation constant (Kd) of 0.95 µM.
